Paper PMC4813576, “Mit1 Transcription Factor Mediates Methanol Signaling and Regulates the Alcohol Oxidase 1 (AOX1) Promoter in Pichia pastoris*”

T1: Mit1 ZF domain (Pichia pastoris (Komagataella pastoris)) (UniProt C4R5Q1)
T1 sequence: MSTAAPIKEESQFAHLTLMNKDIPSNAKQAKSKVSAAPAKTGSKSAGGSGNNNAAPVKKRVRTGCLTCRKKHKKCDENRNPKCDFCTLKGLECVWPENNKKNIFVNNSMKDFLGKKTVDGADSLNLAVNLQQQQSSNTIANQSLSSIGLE

T2: Prm1 ZF domain (Pichia pastoris (Komagataella pastoris)) (UniProt C4R754)
T2 sequence: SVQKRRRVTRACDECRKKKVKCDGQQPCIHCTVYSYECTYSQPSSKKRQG

T3: Mit1 ZF domain (Pichia pastoris (Komagataella pastoris), UniProt C4R5Q1 1-150)
T3 sequence: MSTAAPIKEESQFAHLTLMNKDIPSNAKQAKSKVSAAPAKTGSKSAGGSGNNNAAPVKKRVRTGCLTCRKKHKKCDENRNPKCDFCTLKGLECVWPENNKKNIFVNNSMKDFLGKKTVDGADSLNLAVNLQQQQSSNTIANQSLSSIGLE

T4: Prm1 ZF domain (Pichia pastoris (Komagataella pastoris), UniProt C4R754 41-90)
T4 chain: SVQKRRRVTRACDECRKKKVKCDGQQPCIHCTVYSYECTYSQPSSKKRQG


Key:
[1] = molecular target: T1, Mit1 ZF domain (Pichia pastoris (Komagataella pastoris)); assay: EMSA; settings: EMSA: 50 mM Tris-HCl pH 8.0, 50 mM NaCl, 1 mM DTT, 0.05% NP-40, 50 ug/ml poly[d(I-C)], 5% glycerol, 30 min at 4 C; about 30 nM probe, 0-1 uM protein. …
[2] = molecular target: T2, Prm1 ZF domain (Pichia pastoris (Komagataella pastoris)); assay: EMSA; settings: EMSA: 50 mM Tris-HCl pH 8.0, 50 mM NaCl, 1 mM DTT, 0.05% NP-40, 50 ug/ml poly[d(I-C)], 5% glycerol, 30 min at 4 C; about 30 nM probe, 0-1 uM protein. …
Mit1 ZF domain = molecular target: T3, Mit1 ZF domain; assay: EMSA; EMSA: 50 mM Tris-HCl pH 8.0, 50 mM NaCl, 1 mM DTT, 0.05% NP-40, 50 ug/ml poly[d(I-C)], 5% glycerol, 30 min at 4 C; about 30 nM probe, 0-1 uM protein. Footprinting: 350 ng probe in 40 ul, 30 min at 25 C; settings: protein: recombinant; tags: His6; label: Cy5
Prm1 ZF domain = molecular target: T4, Prm1 ZF domain; assay: as above; settings: protein: recombinant; tags: His6; label: Cy5

Row | Molecule | binding [2] | binding result (Mit1 ZF domain) | also measured
1 | TTGCTGTCAAGTAGGGGTTAGAACAGTTAAATTTTGATCATGAACGTTAGGCTATCAGCAGTATTCCCACCAGAATCTTGGAAGCATACAATGTGGAGACAATGCATAATCATCCAAAAAGCGGGTGTTTCCCCATTTGCGTTTCGGCACAGGTGCACCGGGGTTCAGAAGCGATAGAGAGACTGCGCTAAGCATTAATGAGATTATTTTTGAGCATTCGTCAAT (double strand) [PAOX1 W4] | binds |  | binding [1]: no binding
2 | GTTCTTCCCGTTCCGCTCTATCCGATAAGAGGTTGGCTTCCGAGAAGGTTGGTAGTTGGAATGACGTACAAAATGTACAACAAAGCAGATGTTGTTTAGCGCGATCGCCCCAACCCCTCTTGTTGTTAGACAGTCTTATGCATATTTCGTAGACCCGGGACTGTACATTCGTCCGTCCTCAACCATTGGTCATTTGGTAC (double strand) [PMIT1-D] | binds |  | 
3 | GATAGCACTCTGGATTGATCAGAAACTTCATATCCGGAGACAGATACTTGTCTGTCTTGCATATGGGGCAATATTCTTCAGTATCCATCCGATGATTACGATTAGTATTAGGTTGATGAATAATCCATAATGGTCCCCTGATGGAATATGCTCGCGAAGA (double strand) [PPRM1-A] | binds |  | 
4 | ACAGAATCTGGAGGTGTAAACACCGTCATTCCCTAATCTAAGTTTCTGTCCAGCCGTTTAGAAAGTTCCTCTTCGTCAATAAAGTTTAACTTTGAACGTGAGAGTTGAGCTAATCGGAAATACTCCCGAGAGCACACCCGAGCAGTGAAGCGGGGCATCATCAAAAGAATTAAGGGGTGCTGGGTGCGGATTGCGCGCAGTAGCTGGCATCAATGCCAAACGTAGAACTCATACATTCTCCTATCAGAATCATACGACATCGAGAGATACACCAGCCAGCACCACTTGAACACTCCCAAT (double strand) [PMIT1-A] | binds |  | 
5 | CAATTCCTTCTATTAGGCTACTAACACCATGACTTTATTAGCCTGTCTATCCTGGCCCCCCTGGCGAGGTTCATGTTTGTTTATTTCCGAATGCAACAAGCTCCGCATTACACCCGAACATCACTCCAGATGAGGGCTTTCTGAGTGTGGGGTCAAATAGTTTCATGTTCCCCAAATGGCCCAAAACTGACAGTTTAAACGCTGTCTTG (double strand) [PAOX1 W2] | no binding |  | binding [1]: binds
6 | ATTTTTGAGCATTCGTCAATCAATACCAAACAAGACAAACGGTATGCCGACTTTTGGAAGTTTCTTTTTGACCAACTGGCCGTTAGCATTTCAACGAACCAAACTTAGTTCATCTTGGATGAGATCACGCTTTTGTCATATTAGGTTCCAAGACAGCGTTTAAACTGT (double strand) [PAOX1 W3] | binds |  | binding [1]: binds
7 | W2 delta A (dsDNA) DNA 1: CAATTCATGACTTTATTAGCCTGTCTATCCTGGCCCCCCTGGCGAGGTTCATGTTTGTTTATTTCCGAATGCAACAAGCTCCGCATTACACCCGAACATCACTCCAGATGAGGGCTTTCTGAGTGTGGGGTCAAATAGTTTCATGTTCCCCAAATGGCCCAAAACTGACAGTTTAAACGCTGTCTTG DNA 2: CAAGACAGCGTTTAAACTGTCAGTTTTGGGCCATTTGGGGAACATGAAACTATTTGACCCCACACTCAGAAAGCCCTCATCTGGAGTGATGTTCGGGTGTAATGCGGAGCTTGTTGCATTCGGAAATAAACAAACATGAACCTCGCCAGGGGGGCCAGGATAGACAGGCTAATAAAGTCATGAATTG |  | binds | 
8 | W2 delta A delta B (dsDNA) DNA 1: CAATTCATGACTTCTGGCCCCCCTGGCGAGGTTCATGTTTGTTTATTTCCGAATGCAACAAGCTCCGCATTACACCCGAACATCACTCCAGATGAGGGCTTTCTGAGTGTGGGGTCAAATAGTTTCATGTTCCCCAAATGGCCCAAAACTGACAGTTTAAACGCTGTCTTG DNA 2: CAAGACAGCGTTTAAACTGTCAGTTTTGGGCCATTTGGGGAACATGAAACTATTTGACCCCACACTCAGAAAGCCCTCATCTGGAGTGATGTTCGGGTGTAATGCGGAGCTTGTTGCATTCGGAAATAAACAAACATGAACCTCGCCAGGGGGGCCAGAAGTCATGAATTG |  | no binding | 
9 | W2 delta B (dsDNA) DNA 1: CAATTCCTTCTATTAGGCTACTAACACCATGACTTCTGGCCCCCCTGGCGAGGTTCATGTTTGTTTATTTCCGAATGCAACAAGCTCCGCATTACACCCGAACATCACTCCAGATGAGGGCTTTCTGAGTGTGGGGTCAAATAGTTTCATGTTCCCCAAATGGCCCAAAACTGACAGTTTAAACGCTGTCTTG DNA 2: CAAGACAGCGTTTAAACTGTCAGTTTTGGGCCATTTGGGGAACATGAAACTATTTGACCCCACACTCAGAAAGCCCTCATCTGGAGTGATGTTCGGGTGTAATGCGGAGCTTGTTGCATTCGGAAATAAACAAACATGAACCTCGCCAGGGGGGCCAGAAGTCATGGTGTTAGTAGCCTAATAGAAGGAATTG |  | binds | 
10 | W3 delta B delta C (dsDNA) DNA 1: ACAGTTTAAACGCTGTCTTGGAACCTAATATGACAAAAGCGTGACAAGATGAACTAAGTTTGGTTCGTTGAAATGGCCAGTTGGTCAAAAAGAAACTTCCAAAAGTCGGCATACCGTTTGTCTTGTTTGGTATTGATTGACGAATGCTCAAAAAT DNA 2: ATTTTTGAGCATTCGTCAATCAATACCAAACAAGACAAACGGTATGCCGACTTTTGGAAGTTTCTTTTTGACCAACTGGCCATTTCAACGAACCAAACTTAGTTCATCTTGTCACGCTTTTGTCATATTAGGTTCCAAGACAGCGTTTAAACTGT |  | binds | 
11 | W3 delta D (dsDNA) DNA 1: ACAGTTTAAACGCTGTCTTGGAACCTAATATGACAAAAGCGTGATCTCATCCAAGATGAACTAAGTTTGGTTCGTTGAAATGCTAACGGCCAGTTGGTCAAAAAGAAACTTCCGAATGCTCAAAAAT DNA 2: ATTTTTGAGCATTCGGAAGTTTCTTTTTGACCAACTGGCCGTTAGCATTTCAACGAACCAAACTTAGTTCATCTTGGATGAGATCACGCTTTTGTCATATTAGGTTCCAAGACAGCGTTTAAACTGT |  | binds | binding result (Prm1 ZF domain): no binding
